We go through 1 molecule from US20030040606A1 (SKYTECH TECHNOLOGY, published 2003).

For the assay, the target named is T1, CD22 on Raji cells (UniProt P20273 20-847, limits assumed).
T1 construct: whole, on cells
T1 sequence (looked up): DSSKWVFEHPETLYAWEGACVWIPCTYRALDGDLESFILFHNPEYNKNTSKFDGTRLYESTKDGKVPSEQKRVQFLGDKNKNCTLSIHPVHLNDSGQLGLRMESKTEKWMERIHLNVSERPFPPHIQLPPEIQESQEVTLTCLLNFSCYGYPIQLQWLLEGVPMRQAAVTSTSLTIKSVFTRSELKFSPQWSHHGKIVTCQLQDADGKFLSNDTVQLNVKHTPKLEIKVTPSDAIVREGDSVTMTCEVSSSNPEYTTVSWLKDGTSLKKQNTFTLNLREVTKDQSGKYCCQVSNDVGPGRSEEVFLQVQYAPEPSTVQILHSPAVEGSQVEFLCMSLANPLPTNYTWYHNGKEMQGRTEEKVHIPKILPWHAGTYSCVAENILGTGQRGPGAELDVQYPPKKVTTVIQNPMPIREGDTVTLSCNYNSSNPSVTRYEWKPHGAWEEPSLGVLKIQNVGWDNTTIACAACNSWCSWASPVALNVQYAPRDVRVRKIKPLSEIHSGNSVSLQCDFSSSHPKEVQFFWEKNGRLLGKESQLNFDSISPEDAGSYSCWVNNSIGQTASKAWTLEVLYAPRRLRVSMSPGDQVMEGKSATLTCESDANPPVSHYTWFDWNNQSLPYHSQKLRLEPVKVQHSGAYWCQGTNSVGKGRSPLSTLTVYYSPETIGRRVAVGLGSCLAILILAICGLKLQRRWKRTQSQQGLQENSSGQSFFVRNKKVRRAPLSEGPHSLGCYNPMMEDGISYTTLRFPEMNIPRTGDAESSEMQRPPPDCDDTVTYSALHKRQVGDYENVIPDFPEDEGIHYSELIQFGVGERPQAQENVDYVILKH
Nature of the assay: flow cytometry on Raji cells, 1 ug antibody, FITC goat anti-human IgG1 Fc detection. In general terms: Flow cytometry measures light scatter and fluorescence of single cells or particles in a stream.

Description: The mixtures were incubated for 30 minutes at 4° C. and washed three times with PBS to remove unbound antibodies. The binding levels of the antibodies to Raji cells were assessed by the addition of a 20x diluted FITC-labeled, goat anti-human IgG1, Fc fragment-specific antibodies (Jackson ImmunoResearch, West Grove, Pa.) in a final volume of 100 μl in PBS-FA, and incubating for 30 minutes at 4° C.

B1: FR-patched anti-CD22 antibody hpRFB4 (antibody, human IgG1, V domains shown)
VH: EVQLLESGGGLVQPGGSLRLSCAASGFSFSIYDMSWVRQAPGKGLEWVAYISSGGGTTYYPDTVKGRFTISRDNAKNSLYLQMNSLRVEDTALYYCARHSGYGSSYGVLFAYWGQGTLVTVSS
VL: DIQMTQSPSSLSASVGDRVTISCRASQDISNYLNWYQQKPGKAPKLLIYYTSILHSGVPSRFSGSGSGTEFTLTISSLQPEDFATYFCQQGNTLPWTFGGGTKVEIK
notes: Expressed in Sp2/0 cells with a human IgG1 heavy chain constant region and a human kappa light chain constant region (vectors hpRFB4pSMh and hpRFB4pSMk); protein A purified; also called FR-patched antibody; FR-patched RFB4
For the molecule B1, the binding result is on record as “binds”.
